{"source": "patent US20180038857A1", "test_in_all_cases": "cell-based or functional assay", "key": {"[1]": {"target": "hCCR3 (human) (UniProt P51677)", "sequence (P51677 whole entry)": "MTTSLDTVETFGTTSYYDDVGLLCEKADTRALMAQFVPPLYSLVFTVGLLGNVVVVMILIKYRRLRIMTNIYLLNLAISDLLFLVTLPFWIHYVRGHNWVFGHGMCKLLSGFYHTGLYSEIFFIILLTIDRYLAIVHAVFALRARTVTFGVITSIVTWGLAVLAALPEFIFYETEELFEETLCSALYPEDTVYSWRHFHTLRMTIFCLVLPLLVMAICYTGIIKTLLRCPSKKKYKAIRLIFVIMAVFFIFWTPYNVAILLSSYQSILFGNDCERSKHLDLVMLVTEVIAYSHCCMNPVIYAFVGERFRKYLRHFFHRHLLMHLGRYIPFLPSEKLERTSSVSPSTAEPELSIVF"}, "[2]": {"target": "T1, hCCR6 (human) (UniProt P51684)", "T1 sequence (looked up)": "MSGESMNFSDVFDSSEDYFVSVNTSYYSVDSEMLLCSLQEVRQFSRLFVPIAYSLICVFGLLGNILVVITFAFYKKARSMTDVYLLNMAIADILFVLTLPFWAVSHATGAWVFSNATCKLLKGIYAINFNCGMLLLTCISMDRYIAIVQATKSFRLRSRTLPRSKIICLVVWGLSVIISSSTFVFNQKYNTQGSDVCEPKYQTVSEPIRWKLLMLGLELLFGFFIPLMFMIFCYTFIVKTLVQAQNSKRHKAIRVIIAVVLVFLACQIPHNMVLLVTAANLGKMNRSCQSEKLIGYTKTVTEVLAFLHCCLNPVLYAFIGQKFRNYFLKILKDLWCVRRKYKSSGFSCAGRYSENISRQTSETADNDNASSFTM"}, "[3]": {"target": "hCCR9 (human) (UniProt P51686)", "sequence (P51686 whole entry)": "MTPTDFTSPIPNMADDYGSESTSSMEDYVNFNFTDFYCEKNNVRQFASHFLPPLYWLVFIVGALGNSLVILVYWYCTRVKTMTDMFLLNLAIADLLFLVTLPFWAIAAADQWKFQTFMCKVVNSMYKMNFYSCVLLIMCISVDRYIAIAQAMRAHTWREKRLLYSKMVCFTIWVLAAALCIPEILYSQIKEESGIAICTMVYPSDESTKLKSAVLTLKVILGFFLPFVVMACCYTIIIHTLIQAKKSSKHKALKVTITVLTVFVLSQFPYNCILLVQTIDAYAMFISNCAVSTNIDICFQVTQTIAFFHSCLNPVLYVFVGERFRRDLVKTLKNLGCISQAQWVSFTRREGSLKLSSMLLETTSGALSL"}, "[4]": {"target": "hCXCR3 (human) (UniProt P49682)", "sequence (P49682 whole entry)": "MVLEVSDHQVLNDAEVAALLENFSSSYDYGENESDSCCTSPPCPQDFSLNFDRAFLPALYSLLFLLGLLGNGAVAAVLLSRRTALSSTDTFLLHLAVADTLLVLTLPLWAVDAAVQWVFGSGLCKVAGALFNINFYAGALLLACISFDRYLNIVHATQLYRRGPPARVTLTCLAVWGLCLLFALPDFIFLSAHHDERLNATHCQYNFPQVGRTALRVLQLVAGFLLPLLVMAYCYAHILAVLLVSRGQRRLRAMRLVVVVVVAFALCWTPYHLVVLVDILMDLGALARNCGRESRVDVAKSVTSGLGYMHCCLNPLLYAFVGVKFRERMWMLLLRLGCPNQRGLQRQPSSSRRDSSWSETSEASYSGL"}}}
{"substance": "recombinant native eotaxin (from UniProt P51671 24-97) (ligand)", "values": [{"measurement": "EC50, activity in an Aequorin assay (agonist)", "setting": "[1]", "result": 10.7, "unit": "nM"}]}
{"substance": "recombinant native MIP-3α (from UniProt P78556 27-96) (ligand)", "values": [{"measurement": "EC50, agonist activity in an Aequorin assay", "setting": "[2]", "result": 1, "unit": "nM"}]}
{"substance": "recombinant native TECK (from UniProt O15444 24-150) (ligand)", "values": [{"measurement": "EC50, agonist activity in an Aequorin assay", "setting": "[3]", "result": 67.9, "unit": "nM"}]}
{"substance": "recombinant native IP-10 (from UniProt P02778 22-98) (ligand)", "values": [{"measurement": "EC50, agonist activity in an Aequorin assay", "setting": "[4]", "result": 4.4, "unit": "nM"}]}
{"substance": "biotinTECK(Met to Nleu substitution) (CCL25): TECK derivatised at the ε-amino side chain functionality of Lys72 with PEG-Biotin (from UniProt O15444 25-97) (ligand)", "values": [{"measurement": "EC50, agonist activity in an Aequorin assay", "setting": "[3]", "result": 63.6, "unit": "nM"}]}
